Experimental data as given in patent US20100266695A1 (University of California, published 2010).
Where no end group is shown, it is not given here.

Target: αvβ3 integrin on HeLa cells (human, UniProt P06756 31-1048; P05106 27-788)
Experiment: cell-based or functional assay

αvβ3 integrin on HeLa cells, sequence (P06756 31-1048, chain 1 of 2): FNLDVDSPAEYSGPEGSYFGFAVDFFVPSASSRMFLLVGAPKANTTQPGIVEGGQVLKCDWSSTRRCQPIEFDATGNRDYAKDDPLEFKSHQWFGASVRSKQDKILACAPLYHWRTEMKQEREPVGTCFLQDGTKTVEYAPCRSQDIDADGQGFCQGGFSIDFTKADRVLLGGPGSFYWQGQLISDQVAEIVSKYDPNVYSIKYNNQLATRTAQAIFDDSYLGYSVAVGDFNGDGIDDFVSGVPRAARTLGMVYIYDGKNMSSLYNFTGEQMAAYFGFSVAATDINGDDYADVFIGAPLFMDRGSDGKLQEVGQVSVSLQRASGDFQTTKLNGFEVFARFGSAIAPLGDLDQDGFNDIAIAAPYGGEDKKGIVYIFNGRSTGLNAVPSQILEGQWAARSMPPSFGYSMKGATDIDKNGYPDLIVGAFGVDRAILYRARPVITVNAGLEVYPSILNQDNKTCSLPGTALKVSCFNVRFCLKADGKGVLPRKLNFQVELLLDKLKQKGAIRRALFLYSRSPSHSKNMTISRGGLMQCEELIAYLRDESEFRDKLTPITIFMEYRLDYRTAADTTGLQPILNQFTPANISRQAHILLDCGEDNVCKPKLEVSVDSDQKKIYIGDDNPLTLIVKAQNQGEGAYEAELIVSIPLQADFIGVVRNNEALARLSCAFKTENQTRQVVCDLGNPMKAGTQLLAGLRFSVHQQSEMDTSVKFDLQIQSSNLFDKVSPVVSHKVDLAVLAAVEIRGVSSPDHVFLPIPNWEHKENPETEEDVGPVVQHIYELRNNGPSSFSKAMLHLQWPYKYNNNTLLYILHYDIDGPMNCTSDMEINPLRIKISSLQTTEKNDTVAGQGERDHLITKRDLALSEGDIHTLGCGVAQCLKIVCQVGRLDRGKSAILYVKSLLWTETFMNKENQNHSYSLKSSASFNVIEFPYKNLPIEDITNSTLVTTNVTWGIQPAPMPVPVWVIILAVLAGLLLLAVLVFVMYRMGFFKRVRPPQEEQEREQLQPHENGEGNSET
αvβ3 integrin on HeLa cells, sequence (P05106 27-788, chain 2 of 2): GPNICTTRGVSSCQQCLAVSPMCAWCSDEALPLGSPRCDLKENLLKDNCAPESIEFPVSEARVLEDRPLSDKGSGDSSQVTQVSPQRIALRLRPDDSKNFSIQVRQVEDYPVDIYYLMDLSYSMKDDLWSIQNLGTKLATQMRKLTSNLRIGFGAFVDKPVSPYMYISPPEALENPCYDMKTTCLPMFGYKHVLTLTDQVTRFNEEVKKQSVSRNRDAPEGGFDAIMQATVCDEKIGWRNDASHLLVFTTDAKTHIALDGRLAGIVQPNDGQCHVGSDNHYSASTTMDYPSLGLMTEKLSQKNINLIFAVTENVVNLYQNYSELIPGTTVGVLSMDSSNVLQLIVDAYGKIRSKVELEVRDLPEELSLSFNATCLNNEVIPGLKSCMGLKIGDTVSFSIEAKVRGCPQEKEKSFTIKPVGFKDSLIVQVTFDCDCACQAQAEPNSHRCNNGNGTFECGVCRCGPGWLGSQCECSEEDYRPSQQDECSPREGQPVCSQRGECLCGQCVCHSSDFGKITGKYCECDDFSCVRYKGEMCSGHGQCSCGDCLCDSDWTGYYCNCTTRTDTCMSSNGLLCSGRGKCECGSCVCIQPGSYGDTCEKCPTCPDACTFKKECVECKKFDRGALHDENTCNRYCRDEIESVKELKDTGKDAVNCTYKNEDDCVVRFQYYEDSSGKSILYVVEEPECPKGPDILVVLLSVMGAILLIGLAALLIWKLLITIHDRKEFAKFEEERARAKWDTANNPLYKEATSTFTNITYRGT

B1: Au-Cap-RGD nanoparticles (RGD nanoclusters): 5 nm gold nanoparticles modified with a mixture of Cap and Cap-RGD peptides (peptide)
peptide 1: Ac-CCVVVTGRGDSPSSK-OH
peptide 2: CCVVVT-OH
modifications: also: peptides attached to 5 nm gold nanoparticle via thiol/gold, mixture of Cap and Cap-RGD
  IC50 level of cell adhesion inhibition, as equivalent RGD peptide (anti-adhesion assay, HeLa cells on vitronectin): 0.1 µM

B2: DNA/PEI-Au-Cap-RGD-ASA polyplex: DNA/poly(ethylene imine) polyplex covalently modified with Au-Cap-RGD-ASA nanoparticles (other)
peptide 1: Ac-CCVVVTGRGDSPSSK-OH
peptide 2: CCVVVT
modifications: also: peptides on gold nanoparticle via thiol/gold, azidosalicylic acid added, residue not given here, crosslinked to PEI, bound to DNA/PEI polyplex
  Integrin Sensitivity Factor (ISF), ratio of the transfection level achieved with high and low αvβ3 density cells: 60
  luciferase expression in low αvβ3 density HeLa cells, against unmodified polyplexes: 5.4 fold
  transfection efficiency in high αvβ3 density HeLa cells, against unmodified polyplexes: 35 fold
  transfection efficiency, HeLahigh against HeLalow: 7 fold

## Ac-GCGYGRGDSPSSK-NH2 [free RGD peptide (Ac-GCGYGRGDSPSSK-NH2)]
  IC50 concentration at which 50% of cell adhesion is inhibited (anti-adhesion assay, HeLa cells on vitronectin): ~100 µM
